# Data reported in patent US20210130436A1 (published 2021).
# Where a chain is given by its changes, count along the chain named. In names and notes the source's numbering stands.
# B1: variant CD80 IgV-Fc M47L (Fc fusion, not shown: small tags and cut ends; a dimerising Fc or GST)
# chain: VIHVTKEVKEVATLSCGHNVSVEELAQTRIYWQKEKKMVLTMMSGDLNIWPEYKNRTIFDITNNLSIVILALRPSDEGTYECVVLKYEKDAFKREHLAEVTLSVKAD
# B2: variant CD80 IgV-Fc E35D/D46V/M47L/L85Q (Fc fusion, not shown: small tags and cut ends; a dimerising Fc or GST)
# chain: B1 chain with E35D, D46V, L85Q
# B3: variant CD80 IgV-Fc D46V/V68M (Fc fusion, not shown: small tags and cut ends; a dimerising Fc or GST)
# chain: B1 chain with D46V, L47M, V68M
# B4: variant CD80 IgV-Fc E35D/M47L/V68M/L85Q (Fc fusion, not shown: small tags and cut ends; a dimerising Fc or GST)
# chain: B1 chain with E35D, V68M, L85Q
# B5: variant CD80 IgV-Fc D46V/L85Q (Fc fusion, not shown: small tags and cut ends; a dimerising Fc or GST)
# chain: B1 chain with D46V, L47M, L85Q
# B6: variant CD80 IgV-Fc D46V/M47L/L85Q (Fc fusion, not shown: small tags and cut ends; a dimerising Fc or GST)
# chain: B1 chain with D46V, L85Q
# B7: variant CD80 IgV-Fc E35D/M47L/V68M (Fc fusion, not shown: small tags and cut ends; a dimerising Fc or GST)
# chain: B1 chain with E35D, V68M
# B8: variant CD80 IgV-Fc E35D/N48K (Fc fusion, not shown: small tags and cut ends; a dimerising Fc or GST)
# chain: B1 chain with E35D, L47M, N48K
# B9: variant CD80 IgV-Fc E35D/M47L (Fc fusion, not shown: small tags and cut ends; a dimerising Fc or GST)
# chain: B1 chain with E35D
# B10: variant CD80 IgV-Fc E35D/M47L/L85Q (Fc fusion, not shown: small tags and cut ends; a dimerising Fc or GST)
# chain: B1 chain with E35D, L85Q
# B11: variant CD80 IgV-Fc D46V/M47L/V68M (Fc fusion, not shown: small tags and cut ends; a dimerising Fc or GST)
# chain: B1 chain with D46V, V68M
# B12: variant CD80 IgV-Fc E35D (Fc fusion, not shown: small tags and cut ends; a dimerising Fc or GST)
# chain: B1 chain with E35D, L47M
# B13: variant CD80 IgV-Fc E35D/M47V (Fc fusion, not shown: small tags and cut ends; a dimerising Fc or GST)
# chain: B1 chain with E35D, L47V
# B14: variant CD80 IgV-Fc E35D/D46V/M47L/V68M/L85Q (Fc fusion, not shown: small tags and cut ends; a dimerising Fc or GST)
# chain: B1 chain with E35D, D46V, V68M, L85Q
# B15: variant CD80 IgV-Fc E35D/D46V/L85Q (Fc fusion, not shown: small tags and cut ends; a dimerising Fc or GST)
# chain: B1 chain with E35D, D46V, L47M, L85Q
# B16: variant CD80 IgV-Fc E35D/K89N (Fc fusion, not shown: small tags and cut ends; a dimerising Fc or GST)
# chain: B1 chain with E35D, L47M, K89N
# Biological target: T1, human CTLA4 (CTLA-4), full-length, on CHO cells (human, UniProt P16410 36-223)
# T1 construct: also called huCTLA4
# Test: flow cytometry, CHO cells stably expressing CTLA4
# T1 sequence (P16410 36-223): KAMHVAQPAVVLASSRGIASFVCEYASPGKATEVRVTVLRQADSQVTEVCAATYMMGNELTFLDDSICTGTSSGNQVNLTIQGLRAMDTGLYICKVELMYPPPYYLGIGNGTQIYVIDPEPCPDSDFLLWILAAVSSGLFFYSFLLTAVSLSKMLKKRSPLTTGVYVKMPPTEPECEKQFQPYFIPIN
row,Binder,MFI at 33.3 nM [MFI]
1,B1,30800
2,B2,38200
3,B3,5330
4,B4,28100
5,B5,41900
6,B6,40200
7,B7,28600
8,B8,41300
9,B9,48000
10,B10,12900
11,B11,34700
12,B12,42900
13,B13,44600
14,B14,26200
15,B15,48000
16,B16,21800

# Biological target: T2, CD28 endogenously expressed on Jurkat/IL2 reporter cells (human, UniProt P10747 19-220)
# T2 construct: also called Jurkats (CD28)
# Test: flow cytometry, Jurkat cells (CD28)
row,Binder,MFI at 33.3 nM [MFI]
1,B1,309
2,B2,268
3,B3,556
4,B4,159
5,B5,131
6,B6,567
7,B7,1240
8,B8,194
9,B9,411
10,B10,46.3
11,B11,2180
12,B12,134
13,B13,501
14,B14,464
15,B15,196
16,B16,236

# Biological target: T2, CD28 endogenously expressed on …
# Test: flow cytometry, Jurkat cells (CD28); MFI relative to WT CD80 ECD-Fc
row,Binder,Fold change to WT CD80 [fold]
1,B1,0.4
2,B2,0.4
3,B3,0.8
4,B4,0.2
5,B5,0.2
6,B6,0.8
7,B7,1.8
8,B8,0.3
9,B9,0.6
10,B10,0.1
11,B11,3.1
12,B12,0.2
13,B13,0.7
14,B14,0.7
15,B15,0.3
16,B16,0.3

# Biological target: T3, human PD-L1, full-length, on CHO cells (human, UniProt Q9NZQ7 19-290)
# T3 construct: also called huPD-L1; CD274
# Test: flow cytometry, CHO cells stably expressing PD-L1
# T3 sequence (Q9NZQ7 19-290): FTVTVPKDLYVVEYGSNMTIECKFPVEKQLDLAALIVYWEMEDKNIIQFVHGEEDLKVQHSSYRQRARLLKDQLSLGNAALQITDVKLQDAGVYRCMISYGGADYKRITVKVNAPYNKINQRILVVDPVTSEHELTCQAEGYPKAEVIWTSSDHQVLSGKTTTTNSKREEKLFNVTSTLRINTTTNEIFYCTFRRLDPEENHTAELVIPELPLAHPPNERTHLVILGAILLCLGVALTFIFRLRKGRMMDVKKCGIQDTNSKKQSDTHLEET
row,Binder,MFI at 33.3 nM [MFI]
1,B1,1900
2,B2,7520
3,B3,2270
4,B4,15300
5,B5,2200
6,B6,5980
7,B7,27900
8,B8,6540
9,B9,7530
10,B10,6100
11,B11,28000
12,B12,2580
13,B13,6800
14,B14,28400
15,B15,4040
16,B16,757

# Biological target: T1, human CTLA4 (CTLA-4), full-length, on …
# Test: flow cytometry, CHO/CTLA4 cells; MFI relative to WT CD80 ECD-Fc
row,Binder,Fold change to WT CD80 [fold]
1,B1,0.8
2,B2,0.9
3,B3,0.1
4,B4,0.7
5,B5,1
6,B6,1
7,B7,0.7
8,B8,1
9,B9,1.2
10,B10,0.3
11,B11,0.9
12,B12,1.1
13,B13,1.1
14,B14,0.6
15,B15,1.2
16,B16,0.5

# Biological target: T3, human PD-L1, full-length, on CHO cells
# Test: flow cytometry; PD-L1 MFI over CD28 MFI
row,Binder,Ratio of PDL1:CD28 [ratio]
1,B1,6.1
2,B2,28.1
3,B3,4.1
4,B4,96.3
5,B5,16.8
6,B6,10.5
7,B7,22.4
8,B8,33.7
9,B9,18.3
10,B10,132
11,B11,12.8
12,B12,19.3
13,B13,13.6
14,B14,61.2
15,B15,20.6
16,B16,3.2

# Biological target: T3, human PD-L1, full-length, on CHO cells
# Test: flow cytometry, CHO/PD-L1 cells; MFI relative to WT CD80 ECD-Fc
row,Binder,Fold change to WT CD80 [fold]
1,B1,14.8
2,B2,58.8
3,B3,17.7
4,B4,120
5,B5,17.2
6,B6,46.7
7,B7,218
8,B8,51.1
9,B9,58.8
10,B10,47.6
11,B11,219
12,B12,20.2
13,B13,53.1
14,B14,222
15,B15,31.6
16,B16,5.9
